Measurements reported in patent publication US20250032632A1 (published 2025).

How the values were obtained:
[1] = biological target: human cMET-Fc fusion protein (extracellular domain of human cMET fused to human Fc) (human) (UniProt P08581); test: SPR with hMet-Fc
[2] = biological target: T1, human cMET-Fc fusion protein (extracellular domain of human cMET fused to human Fc) (human, UniProt P08581 25-932); test: SPR, hMET-Fc
T1 construct: Mature cMET is cleaved into alpha and beta subunits; also called hMET-Fc; hMet-Fc
T1 sequence (P08581 25-932): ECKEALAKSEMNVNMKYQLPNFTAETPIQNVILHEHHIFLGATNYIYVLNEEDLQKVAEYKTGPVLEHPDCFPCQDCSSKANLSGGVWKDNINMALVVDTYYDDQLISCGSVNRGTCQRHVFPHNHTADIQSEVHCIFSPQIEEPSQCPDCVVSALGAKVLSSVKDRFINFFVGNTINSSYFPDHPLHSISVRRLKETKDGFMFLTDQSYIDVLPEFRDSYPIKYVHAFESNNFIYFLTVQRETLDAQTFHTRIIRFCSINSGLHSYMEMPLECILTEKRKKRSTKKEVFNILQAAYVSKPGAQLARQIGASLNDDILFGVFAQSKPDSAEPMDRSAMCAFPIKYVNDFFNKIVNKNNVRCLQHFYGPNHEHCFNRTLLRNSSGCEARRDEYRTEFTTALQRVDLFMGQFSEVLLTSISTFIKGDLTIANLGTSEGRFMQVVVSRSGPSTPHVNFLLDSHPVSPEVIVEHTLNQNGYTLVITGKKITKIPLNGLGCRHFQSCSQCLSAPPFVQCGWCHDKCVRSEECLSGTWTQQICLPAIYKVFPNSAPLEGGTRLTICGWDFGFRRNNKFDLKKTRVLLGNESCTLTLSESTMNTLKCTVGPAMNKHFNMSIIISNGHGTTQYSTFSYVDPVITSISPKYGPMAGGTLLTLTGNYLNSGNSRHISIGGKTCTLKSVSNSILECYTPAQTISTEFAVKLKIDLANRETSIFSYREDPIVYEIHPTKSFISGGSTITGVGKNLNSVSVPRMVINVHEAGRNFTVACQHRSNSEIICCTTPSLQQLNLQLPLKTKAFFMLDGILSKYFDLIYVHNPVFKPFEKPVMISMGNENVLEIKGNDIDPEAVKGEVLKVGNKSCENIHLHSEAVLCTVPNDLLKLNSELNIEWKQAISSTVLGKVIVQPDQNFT

[3] = biological target: T1, human cMET-Fc fusion protein …; test: SPR with hMet-Fc
rat cMET-Fc = biological target: T2, rat cMET-Fc (rat, UniProt P97523 25-935); test: SPR, rMET-Fc
T2 construct: Construct named only as rMET-Fc; also called rMET-Fc; not shown: Fc part
T2 sequence (P97523 25-935 limits assumed): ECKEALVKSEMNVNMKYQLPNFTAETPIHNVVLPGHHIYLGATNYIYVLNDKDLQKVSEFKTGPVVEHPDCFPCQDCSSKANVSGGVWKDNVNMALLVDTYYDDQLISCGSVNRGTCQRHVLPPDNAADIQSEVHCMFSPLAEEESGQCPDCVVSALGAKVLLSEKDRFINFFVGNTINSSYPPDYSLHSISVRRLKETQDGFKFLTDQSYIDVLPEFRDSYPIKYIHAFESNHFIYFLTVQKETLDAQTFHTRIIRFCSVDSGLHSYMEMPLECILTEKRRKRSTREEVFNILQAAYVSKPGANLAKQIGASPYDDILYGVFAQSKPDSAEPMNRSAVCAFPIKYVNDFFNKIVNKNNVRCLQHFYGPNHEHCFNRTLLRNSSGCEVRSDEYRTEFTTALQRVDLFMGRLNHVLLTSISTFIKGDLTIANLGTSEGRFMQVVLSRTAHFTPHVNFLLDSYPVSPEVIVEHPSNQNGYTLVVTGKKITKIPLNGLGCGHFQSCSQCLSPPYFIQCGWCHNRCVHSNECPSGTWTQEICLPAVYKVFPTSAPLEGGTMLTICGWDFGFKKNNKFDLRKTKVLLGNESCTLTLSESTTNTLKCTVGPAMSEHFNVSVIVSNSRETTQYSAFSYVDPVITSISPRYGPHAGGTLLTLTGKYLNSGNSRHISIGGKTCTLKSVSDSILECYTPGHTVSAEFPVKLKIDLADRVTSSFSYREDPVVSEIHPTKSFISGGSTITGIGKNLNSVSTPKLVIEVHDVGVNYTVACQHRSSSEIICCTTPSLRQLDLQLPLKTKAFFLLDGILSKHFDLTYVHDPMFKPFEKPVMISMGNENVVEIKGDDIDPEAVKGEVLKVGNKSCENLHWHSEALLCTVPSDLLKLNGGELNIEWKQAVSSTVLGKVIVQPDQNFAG

[4] = biological target: mouse cMET (ELISA antigen) (mouse, UniProt P16056 25-931, limits assumed); test: ELISA, cross-reactivity, mouse cMET
Chain of mouse cMET (ELISA antigen) (P16056 25-931 limits assumed): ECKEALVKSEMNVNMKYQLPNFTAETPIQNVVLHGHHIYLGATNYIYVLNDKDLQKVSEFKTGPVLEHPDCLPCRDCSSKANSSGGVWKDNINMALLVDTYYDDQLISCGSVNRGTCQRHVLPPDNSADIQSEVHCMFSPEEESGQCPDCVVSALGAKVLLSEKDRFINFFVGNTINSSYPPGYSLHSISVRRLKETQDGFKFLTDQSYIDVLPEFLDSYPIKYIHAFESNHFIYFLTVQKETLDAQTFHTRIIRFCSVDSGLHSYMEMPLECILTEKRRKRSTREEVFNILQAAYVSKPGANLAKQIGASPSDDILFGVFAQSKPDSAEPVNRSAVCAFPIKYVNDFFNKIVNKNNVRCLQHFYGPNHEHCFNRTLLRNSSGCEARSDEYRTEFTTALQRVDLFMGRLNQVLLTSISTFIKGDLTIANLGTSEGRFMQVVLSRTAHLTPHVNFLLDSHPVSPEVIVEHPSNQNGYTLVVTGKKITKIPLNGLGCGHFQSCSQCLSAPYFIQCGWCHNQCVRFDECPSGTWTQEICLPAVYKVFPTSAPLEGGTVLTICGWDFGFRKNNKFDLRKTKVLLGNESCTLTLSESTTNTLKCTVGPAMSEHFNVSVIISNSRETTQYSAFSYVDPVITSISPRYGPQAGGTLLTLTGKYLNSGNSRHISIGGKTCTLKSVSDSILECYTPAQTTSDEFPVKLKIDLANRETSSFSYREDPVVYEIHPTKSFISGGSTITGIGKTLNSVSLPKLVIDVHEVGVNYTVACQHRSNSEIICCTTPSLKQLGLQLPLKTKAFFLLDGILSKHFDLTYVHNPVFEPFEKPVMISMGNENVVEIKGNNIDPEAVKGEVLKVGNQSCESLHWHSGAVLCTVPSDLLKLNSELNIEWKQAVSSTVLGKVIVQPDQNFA

rat cMET (ELISA antigen) = biological target: T3, rat cMET (ELISA antigen) (rat, UniProt P97523 25-935, limits assumed); test: ELISA, cross-reactivity, rat cMET
T3 construct: also called rMET
T3 sequence (P97523 25-935 limits assumed): as the sequence (P97523 25-935 limits assumed) above

[5] = biological target: T4, Recombinant Human c-Met-10X His (human, UniProt P08581 25-932); test: ELISA, plate-bound human cMET (FIGS. 17A, 17B)
T4 construct: In-house reagent (Lot #140924TA); not shown: 10X His tag
T4 sequence (P08581 25-932 limits assumed): as the sequence (P08581 25-932) above
Text: Relative binding strength is indicated by luminescence (y-axis).

Chain of human cMET-Fc fusion protein (extracellular domain of human cMET fused to human Fc) (human) (P08581 25-932): as above

| Molecule | Kd [3] | binding result [4] | binding result [5] | further results |
| --- | --- | --- | --- | --- |
| 5D5 (antibody) | – | – | – | Kd [1]: 0.8 nM |
| F6B1P3D12 (mouse monoclonal anti-cMET antibody) (antibody, V domains shown, Mouse hybridoma antibody (ATCC PTA-125826); also called Mouse P3D12) VH: QVQLQQSGAELAKPGASVKMSCRASGYTFTSYWMHWVKQRPGQGLDWIGYIKPSTDNTEYNQKFKDKATLTADKSSSTAYMQLSSLTSEDSAVYYCARSYGNYPLMDYWGQGTSVTVSS VL: QIVLTQSPAIMSASPGEKVTLTCSASSSVTSNYLYWYQQKPGSSPKLWIYSTSNLASGVPARFSGSGSGTSYSLTISSMEAEDAASYFCHQWSSYPPTFGSGTKLEIKR | 0.75 nM | no binding | – | Kd [2]: 0.9 nM; Kd (rat cMET-Fc): 16 nM |
| F6BP2D4 (antibody, V domains shown, Mouse monoclonal antibody) VH: QVQLQQSGAELAKPGASVKMSCKASGYTFTSYWMHWVKQRPGQGLEWIGYINPSTDYIEYNQKFKDKATLTAGKSSSTAYMQLSSLTSEDSAVYYCARSYGNFPLMDYWGQGTSVTVSS VL: QIVLTQSPAIMSASPGEKVTLTCSASSSVSSNYLYWYQQKPGSSPKLWIYSTSNLASGVPVRFSGSGSGTSYSLTISSMEAEDAASYFCHQWSSYPPTFGSGTKLEIKR | 0.48 nM | no binding | – | – |
| F6B1P1E2 (antibody, V domains shown, Mouse monoclonal antibody) VH: QVQLQQSGAELAKPGASVKMSCKASGYTFTSYWMHWVKQRPGQGLEWIGYINPSTDYTEYNQKFKDKATLTADKSSTTAYMQLSSLTSEDSAVYYCVRSYGNYPLMDYWGQGTSVTVSS VL: QIVLTQSPAIMSASPGEKVTLTCSASSSVSSNYLYWYHQKPGSSPKLWIYSTSNLASGVPVRFSGSGSGTSYSLTISSMEAEDAASYFCHQWSSYPPTFGSGTKLEIKR | 0.89 nM | no binding | – | – |
| F5P5B9 (antibody, V domains shown, Mouse monoclonal antibody) VH: QVQLKESGPGLVAPSQSLSITCTVSGFSLTNYGVNWVRQPPGKGLEWLGLIWGGGDTDYNSALKSRLSISKDNSKSQVFLKMETNSLQTDDTARYYCARDYYGFDYWGQGTTLTVSS VL: DVLMTQTPLSLPVSLGDQASISCRSSQTIVHGTGNTYLEWYLQKPGQSPKLLIYKVSNRFSGVPDRFSGSGSGTDFTLKISRVEAEDLGVYYCFQGSHVPYTFGGGTKLEIKR | – | no binding | – | binding result (rat cMET (ELISA antigen)): no binding |
| F6AP8E2 (antibody, V domains shown, Mouse monoclonal antibody) VH: EVQLQQSGAELVRPGALVKLSCKASGFNINDYFMHWVKQRPEQGLEWIGWIDPENGNTIYDPKFQGKASITADTSSNTAYLQLSSLTSEDTAVYYCARGGNYLRESYYYAMDYWGQGTSVTVSS VL: DIVMTQSPKSMSMSVGERVTLSCKASENVGTYVSWYQQKPDQSPKLLIYGASNRYTGVPDRFTGSGSATDFTLTISSVQAEDLADYHCGQSYSYPLTFGAGTKLELKR | 0.16 nM | no binding | – | binding result (rat cMET (ELISA antigen)): no binding |
| hD12-II (Antibody hD12 attached to the payload of chemical formula II, stochastic conjugation) (antibody, human IgG2, kappa, payload of chemical formula II on one or more cysteine residues of the antibody at random positions (chain not stated); payload of chemical formula II (pyrrolobenzodiazepine toxin + linking group, maleimide) on one or more cysteine residues of the antibody at random positions, also called hD12-vc-II) heavy: QVQLVQSGAEVKKPGASVKVSCKASGYTFTSYWMHWVKQAPGQGLDWIGYIKPSTDNTEYNQKFKDKATLTADKSTSTAYMELSSLRSEDTAVYYCARSYGNYPLMDYWGQGTTVTVSSASTKGPSVFPLAPCSRSTSESTAALGCLVKDYFPEPVTVSWNSGALTSGVHTFPAVLQSSGLYSLSSVVTVPSSNFGTQTYTCNVDHKPSNTKVDKTVERKCCVECPPCPAPPVAGPSVFLFPPKPKDTLMISRTPEVTCVVVDVSHEDPEVQFNWYVDGVEVHNAKTKPREEQFNSTFRVVSVLTVVHQDWLNGKEYKCKVSNKGLPAPIEKTISKTKGQPREPQVYTLPPSREEMTKNQVSLTCLVKGFYPSDIAVEWESNGQPENNYKTTPPMLDSDGSFFLYSKLTVDKSRWQQGNVFSCSVMHEALHNHYTQKSLSLSPGK light: QIVLTQSPAILSLSPGERATLSCSASSSVTSNYLYWYQQKPGSSPKLLIYSTSNLASGVPARFSGSGSGTSYTLTISSLEAEDAASYFCHQWSSYPPTFGSGTKLEIKRTVAAPSVFIFPPSDEQLKSGTASVVCLLNNFYPREAKVQWKVDNALQSGNSQESVTEQDSKDSTYSLSSTLTLSKADYEKHKVYACEVTHQGLSSPVTKSFNRGEC | – | – | binds | – |
| hD12-IV (Antibody hD12 attached to the payload of chemical formula IV, stochastic conjugation) (antibody, human IgG2, kappa, payload of chemical formula IV on one or more cysteine residues of the antibody at random positions (chain not stated); payload of chemical formula IV (pyrrolobenzodiazepine toxin + linking group, maleimide) on one or more cysteine residues of the antibody at random positions, Antibody-drug conjugate; also called hD12-vc-IV) heavy: QVQLVQSGAEVKKPGASVKVSCKASGYTFTSYWMHWVKQAPGQGLDWIGYIKPSTDNTEYNQKFKDKATLTADKSTSTAYMELSSLRSEDTAVYYCARSYGNYPLMDYWGQGTTVTVSSASTKGPSVFPLAPCSRSTSESTAALGCLVKDYFPEPVTVSWNSGALTSGVHTFPAVLQSSGLYSLSSVVTVPSSNFGTQTYTCNVDHKPSNTKVDKTVERKCCVECPPCPAPPVAGPSVFLFPPKPKDTLMISRTPEVTCVVVDVSHEDPEVQFNWYVDGVEVHNAKTKPREEQFNSTFRVVSVLTVVHQDWLNGKEYKCKVSNKGLPAPIEKTISKTKGQPREPQVYTLPPSREEMTKNQVSLTCLVKGFYPSDIAVEWESNGQPENNYKTTPPMLDSDGSFFLYSKLTVDKSRWQQGNVFSCSVMHEALHNHYTQKSLSLSPGK light: QIVLTQSPAILSLSPGERATLSCSASSSVTSNYLYWYQQKPGSSPKLLIYSTSNLASGVPARFSGSGSGTSYTLTISSLEAEDAASYFCHQWSSYPPTFGSGTKLEIKRTVAAPSVFIFPPSDEQLKSGTASVVCLLNNFYPREAKVQWKVDNALQSGNSQESVTEQDSKDSTYSLSSTLTLSKADYEKHKVYACEVTHQGLSSPVTKSFNRGEC | – | – | binds | – |
| hD12-VI (Antibody hD12 attached to the payload of chemical formula VI, stochastic conjugation) (antibody, human IgG2, kappa, payload of chemical formula VI on one or more cysteine residues of the antibody at random positions (chain not stated); payload of chemical formula VI (pyrrolobenzodiazepine toxin + linking group, maleimide) on one or more cysteine residues of the antibody at random positions, Antibody-drug conjugate; also called hD12-vc-VI) heavy: QVQLVQSGAEVKKPGASVKVSCKASGYTFTSYWMHWVKQAPGQGLDWIGYIKPSTDNTEYNQKFKDKATLTADKSTSTAYMELSSLRSEDTAVYYCARSYGNYPLMDYWGQGTTVTVSSASTKGPSVFPLAPCSRSTSESTAALGCLVKDYFPEPVTVSWNSGALTSGVHTFPAVLQSSGLYSLSSVVTVPSSNFGTQTYTCNVDHKPSNTKVDKTVERKCCVECPPCPAPPVAGPSVFLFPPKPKDTLMISRTPEVTCVVVDVSHEDPEVQFNWYVDGVEVHNAKTKPREEQFNSTFRVVSVLTVVHQDWLNGKEYKCKVSNKGLPAPIEKTISKTKGQPREPQVYTLPPSREEMTKNQVSLTCLVKGFYPSDIAVEWESNGQPENNYKTTPPMLDSDGSFFLYSKLTVDKSRWQQGNVFSCSVMHEALHNHYTQKSLSLSPGK light: QIVLTQSPAILSLSPGERATLSCSASSSVTSNYLYWYQQKPGSSPKLLIYSTSNLASGVPARFSGSGSGTSYTLTISSLEAEDAASYFCHQWSSYPPTFGSGTKLEIKRTVAAPSVFIFPPSDEQLKSGTASVVCLLNNFYPREAKVQWKVDNALQSGNSQESVTEQDSKDSTYSLSSTLTLSKADYEKHKVYACEVTHQGLSSPVTKSFNRGEC | – | – | binds | – |
| hD12-VII (Antibody hD12 attached to the payload of chemical formula VII, stochastic conjugation) (antibody, human IgG2, kappa, payload of chemical formula VII on one or more cysteine residues of the antibody at random positions (chain not stated); payload of chemical formula VII (pyrrolobenzodiazepine toxin + linking group, maleimide) on one or more cysteine residues of the antibody at random positions, Antibody-drug conjugate; also called hD12-vc-VII) heavy: QVQLVQSGAEVKKPGASVKVSCKASGYTFTSYWMHWVKQAPGQGLDWIGYIKPSTDNTEYNQKFKDKATLTADKSTSTAYMELSSLRSEDTAVYYCARSYGNYPLMDYWGQGTTVTVSSASTKGPSVFPLAPCSRSTSESTAALGCLVKDYFPEPVTVSWNSGALTSGVHTFPAVLQSSGLYSLSSVVTVPSSNFGTQTYTCNVDHKPSNTKVDKTVERKCCVECPPCPAPPVAGPSVFLFPPKPKDTLMISRTPEVTCVVVDVSHEDPEVQFNWYVDGVEVHNAKTKPREEQFNSTFRVVSVLTVVHQDWLNGKEYKCKVSNKGLPAPIEKTISKTKGQPREPQVYTLPPSREEMTKNQVSLTCLVKGFYPSDIAVEWESNGQPENNYKTTPPMLDSDGSFFLYSKLTVDKSRWQQGNVFSCSVMHEALHNHYTQKSLSLSPGK light: QIVLTQSPAILSLSPGERATLSCSASSSVTSNYLYWYQQKPGSSPKLLIYSTSNLASGVPARFSGSGSGTSYTLTISSLEAEDAASYFCHQWSSYPPTFGSGTKLEIKRTVAAPSVFIFPPSDEQLKSGTASVVCLLNNFYPREAKVQWKVDNALQSGNSQESVTEQDSKDSTYSLSSTLTLSKADYEKHKVYACEVTHQGLSSPVTKSFNRGEC | – | – | binds | – |
| hD12-XI (Antibody hD12 attached to the payload of chemical formula XI, stochastic conjugation) (antibody, human IgG2, kappa, payload of chemical formula XI on one or more cysteine residues of the antibody at random positions (chain not stated); payload of chemical formula XI (pyrrolobenzodiazepine toxin + linking group, maleimide) on one or more cysteine residues of the antibody at random positions, Antibody-drug conjugate; also called hD12-vc-XI) heavy: QVQLVQSGAEVKKPGASVKVSCKASGYTFTSYWMHWVKQAPGQGLDWIGYIKPSTDNTEYNQKFKDKATLTADKSTSTAYMELSSLRSEDTAVYYCARSYGNYPLMDYWGQGTTVTVSSASTKGPSVFPLAPCSRSTSESTAALGCLVKDYFPEPVTVSWNSGALTSGVHTFPAVLQSSGLYSLSSVVTVPSSNFGTQTYTCNVDHKPSNTKVDKTVERKCCVECPPCPAPPVAGPSVFLFPPKPKDTLMISRTPEVTCVVVDVSHEDPEVQFNWYVDGVEVHNAKTKPREEQFNSTFRVVSVLTVVHQDWLNGKEYKCKVSNKGLPAPIEKTISKTKGQPREPQVYTLPPSREEMTKNQVSLTCLVKGFYPSDIAVEWESNGQPENNYKTTPPMLDSDGSFFLYSKLTVDKSRWQQGNVFSCSVMHEALHNHYTQKSLSLSPGK light: QIVLTQSPAILSLSPGERATLSCSASSSVTSNYLYWYQQKPGSSPKLLIYSTSNLASGVPARFSGSGSGTSYTLTISSLEAEDAASYFCHQWSSYPPTFGSGTKLEIKRTVAAPSVFIFPPSDEQLKSGTASVVCLLNNFYPREAKVQWKVDNALQSGNSQESVTEQDSKDSTYSLSSTLTLSKADYEKHKVYACEVTHQGLSSPVTKSFNRGEC | – | – | binds | – |
